Measured values from patent US20140348865A1, “[…] ON AN HIV-1 V1V2 SITE-OF-VULNERABILITY” (The United States of America, as represented by the …, priority 2011, published 2014).

What was measured:
[1] = target: Env of HIV-1 strain QH209 (pseudovirus) (HIV-1)
1FD6-ZM109 V1V2 scaffold = experiment: ELISA
[2] = target: 1FD6 ZM109 scaffold N160Q; experiment: ELISA
[3] = target: 1FD6 ZM109 scaffold N192D; experiment: ELISA
[4] = target: 1FD6 ZM109 scaffold N130D; experiment: ELISA
[5] = target: 1FD6 ZM109 scaffold N138D; experiment: ELISA
[6] = target: 1FD6 ZM109 scaffold N189D; experiment: ELISA
[7] = target: 1FD6 ZM109 scaffold N173D; experiment: ELISA
[8] = target: Env of HIV-1 strain 7165.18 (pseudovirus) (HIV-1)
[9] = target: Env of HIV-1 strain QH0515 (pseudovirus) (HIV-1)
[10] = target: Env of HIV-1 strain RHPA (pseudovirus) (HIV-1)
[11] = target: Env of HIV-1 strain T251-18 (pseudovirus) (HIV-1)
[12] = target: Env of HIV-1 strain CNE4 (pseudovirus) (HIV-1)
[13] = target: Env of HIV-1 strain JRFL (pseudovirus) (HIV-1)
[14] = target: Env of HIV-1 strain BG 1168 (pseudovirus) (HIV-1)

monoclonal antibody PG16
neutralization IC50 (TH976.17): > 50 mg/L | neutralization IC50 (MI369.A5): 0.011 mg/L | neutralization IC50 (Q842.d12): 0.001 mg/L | neutralization IC50 (Q769.d22): 0.01 mg/L | neutralization IC50 (0330.v4.c3): 0.006 mg/L | neutralization IC50 (BI369.9A): 0.007 mg/L | neutralization IC50 (CNE55): 1.37 mg/L | neutralization IC50 (C2101.c1): 0.009 mg/L | neutralization IC50 (RW020.2): 0.07 mg/L | neutralization IC50 (KNH1209.18): 0.678 mg/L | neutralization IC50 (BB201.B42): 0.003 mg/L | neutralization IC50 [1]: > 50 mg/L | neutralization IC50 (6545_V4_C1): 0.068 mg/L | neutralization IC50 (3468_V1_C12): 2.38 mg/L | neutralization IC50 (R2184.c4): 0.28 mg/L | neutralization IC50 (BB539.2B13): 0.012 mg/L | neutralization IC50 (BS208.B1): 0.004 mg/L | neutralization IC50 (3415.v1.c1): 0.036 mg/L | neutralization IC50 (MB539.2B7): 0.025 mg/L | EC50 (1FD6-ZM109 V1V2 scaffold): 3.4 mg/L | EC50 [2]: > 50 mg/L | EC50 [3]: 2.5 mg/L | EC50 [4]: 1.5 mg/L | EC50 [5]: 4.4 mg/L | EC50 [6]: 4 mg/L | EC50 [7]: > 50 mg/L | neutralization IC50 (TRO.11 (pseudovirus)): 4.86 mg/L | neutralization IC50 (T255-34): 0.005 mg/L | neutralization IC50 (JR-CSF): 0.002 mg/L | neutralization IC50 (HO86.8): 0.001 mg/L | neutralization IC50 (SF162.LS): > 50 mg/L | neutralization IC50 (SS1196.01): 0.069 mg/L | neutralization IC50 (T250-4): < 0.0006 mg/L | neutralization IC50 (DJ263.8): 0.048 mg/L | neutralization IC50 (PVO.04): 19.8 mg/L | neutralization IC50 (HXB2.DG): > 50 mg/L | neutralization IC50 (Bal.01): 8 mg/L | neutralization IC50 (MN.3): > 50 mg/L | neutralization IC50 (CNE10): 9.17 mg/L | neutralization IC50 (T257-31): 0.003 mg/L | neutralization IC50 [8]: > 50 mg/L | neutralization IC50 (BaL.26): 0.136 mg/L | neutralization IC50 (SC422.8): 1.2 mg/L | neutralization IC50 (CNE12): > 50 mg/L | neutralization IC50 [9]: > 50 mg/L | neutralization IC50 (89.6.DG): > 50 mg/L | neutralization IC50 (BX08_16): 0.062 mg/L | neutralization IC50 (T33-7): < 0.023 mg/L | neutralization IC50 (TRJO.58): 0.393 mg/L | neutralization IC50 (THRO.18): 0.975 mg/L | neutralization IC50 (BL01.DG): > 50 mg/L | neutralization IC50 (ADA.DG): 0.023 mg/L | neutralization IC50 [10]: 1.32 mg/L | neutralization IC50 (T278-50): 1.13 mg/L | neutralization IC50 (CAAN.A2): 7.43 mg/L | neutralization IC50 [11]: 10.5 mg/L | neutralization IC50 (HT593.1): 0.153 mg/L | neutralization IC50 (WITO.33): < 0.023 mg/L | neutralization IC50 [12]: > 50 mg/L | neutralization IC50 (YU2.DG): 0.041 mg/L | neutralization IC50 [13]: > 50 mg/L | neutralization IC50 (QH0692.42 (pseudovirus)): > 50 mg/L | neutralization IC50 (CNE14): > 50 mg/L | neutralization IC50 [14]: > 50 mg/L | neutralization IC50 (BR07.DG): > 50 mg/L | neutralization IC50 (T280-5): 0.233 mg/L | neutralization IC50 (REJO.67): 0.005 mg/L | neutralization IC50 (T253-11): 4.44 mg/L | neutralization IC50 (T266-60): > 50 mg/L | neutralization IC50 (AC10.29): < 0.023 mg/L

monoclonal antibody PG9
neutralization IC50 (TH976.17): > 50 mg/L | neutralization IC50 (MI369.A5): 0.058 mg/L | neutralization IC50 (Q842.d12): 0.005 mg/L | neutralization IC50 (Q769.d22): 0.007 mg/L | neutralization IC50 (0330.v4.c3): 0.018 mg/L | neutralization IC50 (BI369.9A): 0.029 mg/L | neutralization IC50 (CNE55): 0.146 mg/L | neutralization IC50 (C2101.c1): 0.026 mg/L | neutralization IC50 (RW020.2): 0.103 mg/L | neutralization IC50 (KNH1209.18): 0.367 mg/L | neutralization IC50 (BB201.B42): 0.014 mg/L | neutralization IC50 [1]: > 50 mg/L | neutralization IC50 (6545_V4_C1): 0.095 mg/L | neutralization IC50 (3468_V1_C12): 2.09 mg/L | neutralization IC50 (R2184.c4): 0.2 mg/L | neutralization IC50 (BB539.2B13): 0.106 mg/L | neutralization IC50 (BS208.B1): 0.031 mg/L | neutralization IC50 (3415.v1.c1): 0.149 mg/L | neutralization IC50 (MB539.2B7): 0.058 mg/L | EC50 (1FD6-ZM109 V1V2 scaffold): 0.1 mg/L | EC50 [2]: > 50 mg/L | EC50 [3]: 0.1 mg/L | EC50 [4]: 0.4 mg/L | EC50 [5]: 0.2 mg/L | EC50 [6]: 0.1 mg/L | EC50 [7]: 7 mg/L | neutralization IC50 (TRO.11 (pseudovirus)): 41.5 mg/L | neutralization IC50 (T255-34): 0.015 mg/L | neutralization IC50 (JR-CSF): 0.003 mg/L | neutralization IC50 (HO86.8): 0.014 mg/L | neutralization IC50 (SF162.LS): > 50 mg/L | neutralization IC50 (SS1196.01): 0.293 mg/L | neutralization IC50 (T250-4): < 0.0006 mg/L | neutralization IC50 (DJ263.8): 0.1 mg/L | neutralization IC50 (PVO.04): 6.24 mg/L | neutralization IC50 (HXB2.DG): 0.553 mg/L | neutralization IC50 (Bal.01): 0.052 mg/L | neutralization IC50 (MN.3): > 50 mg/L | neutralization IC50 (CNE10): 0.243 mg/L | neutralization IC50 (T257-31): 0.02 mg/L | neutralization IC50 [8]: > 50 mg/L | neutralization IC50 (BaL.26): 0.034 mg/L | neutralization IC50 (SC422.8): 0.535 mg/L | neutralization IC50 (CNE12): > 50 mg/L | neutralization IC50 [9]: > 50 mg/L | neutralization IC50 (89.6.DG): > 50 mg/L | neutralization IC50 (BX08_16): 0.024 mg/L | neutralization IC50 (T33-7): < 0.023 mg/L | neutralization IC50 (TRJO.58): 0.246 mg/L | neutralization IC50 (THRO.18): 15 mg/L | neutralization IC50 (BL01.DG): > 50 mg/L | neutralization IC50 (ADA.DG): 0.342 mg/L | neutralization IC50 [10]: > 50 mg/L | neutralization IC50 (T278-50): 0.913 mg/L | neutralization IC50 (CAAN.A2): 13 mg/L | neutralization IC50 [11]: > 50 mg/L | neutralization IC50 (HT593.1): 0.271 mg/L | neutralization IC50 (WITO.33): < 0.023 mg/L | neutralization IC50 [12]: > 50 mg/L | neutralization IC50 (YU2.DG): 3.69 mg/L | neutralization IC50 [13]: > 50 mg/L | neutralization IC50 (QH0692.42 (pseudovirus)): > 50 mg/L | neutralization IC50 (CNE14): > 50 mg/L | neutralization IC50 [14]: > 50 mg/L | neutralization IC50 (BR07.DG): > 50 mg/L | neutralization IC50 (T280-5): 0.379 mg/L | neutralization IC50 (REJO.67): 0.005 mg/L | neutralization IC50 (T253-11): 0.127 mg/L | neutralization IC50 (T266-60): 24 mg/L | neutralization IC50 (AC10.29): 0.078 mg/L
